Laboratory results from patent US20240010701A1.

Key:
[1] = biological target: FcγIIIaV158F (human) (UniProt P08637); experiment: SPR (Biacore 8K), 25° C, antibody captured on nectin-4-coated chip, receptor ECD as analyte, steady-state analysis
[2] = biological target: hFcγIIIa (human) (UniProt P08637); experiment: as above
[3] = biological target: FcγIIIaV158F (human) (UniProt P08637); experiment: SPR (Biacore 8K), 25° C, ADC captured on nectin-4-coated chip, receptor ECD as analyte, steady-state analysis
[4] = biological target: hFcγIIIa (human) (UniProt P08637); experiment: as above

Substance | Kd [1] | Kd [2] | Kd [3] | Kd [4]
DRUG B (enfortumab similar antibody that specifically binds human nectin-4) | 983 nM | 316 nM | – | –
DRUG C (enfortumab vedotin similar antibody-drug conjugate) | – | – | 1200 nM | 429 nM
